Measurements as given in patent US8318163 (Genentech, dated 2012).

T1: human Nrp1 protein (BIAcore analyte) (human, UniProt O14786 22-586, limits assumed)
T1 construct: no residue range for such an Nrp1 construct is printed; also called neuropilin-1
T1 sequence (looked up): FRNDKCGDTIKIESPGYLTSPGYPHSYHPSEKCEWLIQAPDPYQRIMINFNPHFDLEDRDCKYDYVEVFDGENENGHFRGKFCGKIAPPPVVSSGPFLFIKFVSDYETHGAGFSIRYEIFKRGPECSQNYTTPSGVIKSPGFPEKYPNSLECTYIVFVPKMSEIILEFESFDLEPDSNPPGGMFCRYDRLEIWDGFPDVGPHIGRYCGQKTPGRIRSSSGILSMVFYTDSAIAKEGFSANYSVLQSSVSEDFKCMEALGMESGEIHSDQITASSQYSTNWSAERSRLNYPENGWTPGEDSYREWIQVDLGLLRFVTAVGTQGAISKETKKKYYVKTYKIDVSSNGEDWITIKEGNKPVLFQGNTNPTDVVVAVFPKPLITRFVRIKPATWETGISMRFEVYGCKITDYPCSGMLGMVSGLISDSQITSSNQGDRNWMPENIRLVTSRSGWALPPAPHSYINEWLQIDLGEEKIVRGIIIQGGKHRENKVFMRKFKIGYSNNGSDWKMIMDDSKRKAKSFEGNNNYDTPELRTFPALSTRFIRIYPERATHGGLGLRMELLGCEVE

T2: human Nrp2 a1a2b1b2 (human, UniProt O60462 21-595, N-glycosylated (two sites within the a2 domain seen in the monoclinic crystal form))
T2 construct: range 1-595; The printed range begins at Met1 and so includes the native signal peptide, which is cleaved on secretion
T2 sequence: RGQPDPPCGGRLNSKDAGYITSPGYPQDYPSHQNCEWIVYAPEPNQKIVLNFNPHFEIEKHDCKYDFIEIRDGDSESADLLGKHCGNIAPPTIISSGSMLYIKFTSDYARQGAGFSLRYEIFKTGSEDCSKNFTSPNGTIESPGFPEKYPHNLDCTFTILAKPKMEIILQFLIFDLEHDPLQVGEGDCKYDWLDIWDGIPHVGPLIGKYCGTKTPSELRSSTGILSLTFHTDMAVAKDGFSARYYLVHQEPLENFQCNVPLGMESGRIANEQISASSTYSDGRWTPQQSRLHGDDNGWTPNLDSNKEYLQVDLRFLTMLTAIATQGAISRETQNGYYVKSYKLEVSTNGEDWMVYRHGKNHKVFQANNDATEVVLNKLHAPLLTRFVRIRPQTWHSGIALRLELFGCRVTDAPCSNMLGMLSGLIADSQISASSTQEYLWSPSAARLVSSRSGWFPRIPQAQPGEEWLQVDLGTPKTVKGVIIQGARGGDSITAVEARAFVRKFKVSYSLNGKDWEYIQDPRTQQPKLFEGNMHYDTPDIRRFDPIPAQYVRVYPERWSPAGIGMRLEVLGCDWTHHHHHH

T3: human Nrp2 b1b2 (human, UniProt O60462 275-595)
T3 construct: range 275-595; Range is that of the crystallization construct; also called Nrp2 b1b2 domains
T3 sequence (looked up): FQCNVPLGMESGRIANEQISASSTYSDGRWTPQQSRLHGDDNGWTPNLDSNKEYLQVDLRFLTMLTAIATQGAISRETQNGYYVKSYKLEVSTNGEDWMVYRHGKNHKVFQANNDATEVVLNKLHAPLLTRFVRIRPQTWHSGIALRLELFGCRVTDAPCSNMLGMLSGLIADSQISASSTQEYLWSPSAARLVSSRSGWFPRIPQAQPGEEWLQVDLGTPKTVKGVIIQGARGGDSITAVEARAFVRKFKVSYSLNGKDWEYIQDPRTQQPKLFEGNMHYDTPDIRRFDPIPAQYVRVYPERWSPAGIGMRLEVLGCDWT

B1: anti-panNrp^A antibody, clone YW68.11.26 (IgG) (antibody, V domains shown)
VH: EVQLVESGGGLVQPGGSLRLSCAASGFTISGYGIHWVRQAPGKGLEWVAYIYPDSGYTDYADSVKGRFTISADTSKNTAYLQMNSLRAEDTAVYYCAREDFRNRRRLWYVMDYWGQGT
VL: DIQMTQSPSSLSASVGDRVTITCRASQDVSTAVAWYQQKPGKAPKLLIYSASFLYSGVPSRFSGSGSGTDFTLTDSSLQPEDFATYYCQQAWAYLTTFGQGTKVEIKR
notes: Human IgG1 from a synthetic phage library; immobilized as IgG on the BIAcore chip
B2: human Nrp2 a2b1b2 (receptor, UniProt O60462 145-595, looked up)
chain: GSEDCSKNFTSPNGTIESPGFPEKYPHNLDCTFTILAKPKMEIILQFLIFDLEHDPLQVGEGDCKYDWLDIWDGIPHVGPLIGKYCGTKTPSELRSSTGILSLTFHTDMAVAKDGFSARYYLVHQEPLENFQCNVPLGMESGRIANEQISASSTYSDGRWTPQQSRLHGDDNGWTPNLDSNKEYLQVDLRFLTMLTAIATQGAISRETQNGYYVKSYKLEVSTNGEDWMVYRHGKNHKVFQANNDATEVVLNKLHAPLLTRFVRIRPQTWHSGIALRLELFGCRVTDAPCSNMLGMLSGLIADSQISASSTQEYLWSPSAARLVSSRSGWFPRIPQAQPGEEWLQVDLGTPKTVKGVIIQGARGGDSITAVEARAFVRKFKVSYSLNGKDWEYIQDPRTQQPKLFEGNMHYDTPDIRRFDPIPAQYVRVYPERWSPAGIGMRLEVLGCDWT
notes: range 145-595; Purified on Ni-NTA; the tag of this construct is not described
B3: full-length human Nrp2-ECD (a1a2b1b2c) (receptor)
chain: RGQPDPPCGGRLNSKDAGYITSPGYPQDYPSHQNCEWIVYAPEPNQKIVLNFNPHFEIEKHDCKYDFIEIRDGDSESADLLGKHCGNIAPPTIISSGSMLYIKFTSDYARQGAGFSLRYEIFKTGSEDCSKNFTSPNGTIESPGFPEKYPHNLDCTFTILAKPKMEIILQFLIFDLEHDPLQVGEGDCKYDWLDIWDGIPHVGPLIGKYCGTKTPSELRSSTGILSLTFHTDMAVAKDGFSARYYLVHQEPLENFQCNVPLGMESGRIANEQISASSTYSDGRWTPQQSRLHGDDNGWTPNLDSNKEYLQVDLRFLTMLTAIATQGAISRETQNGYYVKSYKLEVSTNGEDWMVYRHGKNHKVFQANNDATEVVLNKLHAPLLTRFVRIRPQTWHSGIALRLELFGCRVTDAPCSNMLGMLSGLIADSQISASSTQEYLWSPSAARLVSSRSGWFPRIPQAQPGEEWLQVDLGTPKTVKGVIIQGARGGDSITAVEARAFVRKFKVSYSLNGKDWEYIQDPRTQQPKLFEGNMHYDTPDIRRFDPIPAQYVRVYPERWSPAGIGMRLEVLGCDWTDSKPTVETLGPTVKSEETTTPYPTEEEATECGENCSFEDDKDLQLPSGFNCNFDFLEEPCGWMYDHAKWLRTTWASSSSPNDRTFPDDRNFLRLQSDSQREGQYARLISPPVHLPRSPVCMEFQYQATGGRGVALQVVREASQESKLLWVIREDQGGEWKHGRIILPSYDMEYQIVFEGVIGKGRSGEIAIDDIRISTDVPLENCMEPISAFAGENFKVDIPEIHEREGYEDEIDDEYEVDWSNSSSATSGSGAPSTDKEKSWLYTLDPHHHHHH
notes: extracellular domain

Experiments:
[1] = target: T1, human Nrp1 protein (BIAcore analyte); assay: BIAcore, IgG immobilized on the chip, human NRP protein injected, 25 C; Nrp1 (first of the two affinities)
Source text: (§1) Figure 11: FIG. 11—Analysis of anti-Nrp antibody binding kinetics. BIAcore kinetic analysis of anti-panNrp[4] antibody.

[2] = target: T2, human Nrp2 a1a2b1b2; assay: BIAcore, IgG immobilized on the chip, human NRP protein injected, 25 C; Nrp2 (second of the two affinities)
Source text: as §1

[3] = target: T3, human Nrp2 b1b2; assay: BIAcore (SPR), 500 nM Nrp protein injected over immobilized IgG at 25 C
Source text: as §1

[4] = target: the molecule itself; assay: multi-angle light scattering, self-association

Binder	Kd [1]	Kd [2]	binding result [3]	binding result [4]
B1	0.21 nM	0.15 nM	no binding (tested: 500 nM)	–
B2	–	–	–	no binding
B3	–	–	–	no binding
